As usually defined, the koff is the first-order rate constant of dissociation. A word on the Kd: it is a measure of binding affinity in units of concentration.

The text below walks through data of patent publication US20130064834A1 (published 2013).

For test [1], the target named is T1, tagged rhesus monkey (Macaca mulata) PCSK9 (rhesus monkey (Macaca mulata), UniProt A8T666 31-692).
T1 construct: also called mmPCSK9-mmh; mmPCSK9
The experiment in a line: SPR, 25C.

Test [2] has as its target T2, Human PCSK9-myc-myc-his (human, UniProt Q8NBP7 31-692).
T2 construct: also called hPCSK9-mmh; hPCSK9
The experiment in a line: SPR, mAb captured, 25C.
Description: (§1) Each antibody was captured at a flow rate of 4 μl/min for 90 sec on a goat anti-mouse IgG polyclonal antibody surface created through direct chemical coupling to a BIACORE™ chip to form a captured antibody surface.

The target in test [3] is T2, Human PCSK9-myc-myc-his. Description: SPR, mAb captured, 37C. On the technique in general: Surface plasmon resonance follows binding to a sensor surface in real time, without labels.
Description: as §1
Test [4] has as its target T2, Human PCSK9-myc-myc-his. The experiment in a line: ELISA, mAb coated, 1.2 nM antigen.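 Further: antigen allowed to bind for 1 h at room temperature, then captured protein revealed with an HRP-linked polyclonal anti-myc antibody and read as optical density.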 For orientation: An ELISA detects its analyte on a solid surface through an enzyme-linked reagent.
Description: (§2) After 1 hr binding at RT, the plate was washed and bound test protein detected using HRP-conjugated anti-myc polyclonal antibody (++=OD>1.0; +=OD 0.4-1.0; −=OD<0.4).
The target in a further test is T3, hPCSK9(D374Y)-mmh (human, UniProt Q8NBP7 31-692).
T3 construct: also called hPCSK(D374Y)-mmh
The experiment in a line: ELISA, mAb coated, 1.2 nM antigen.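 Further: antigen allowed to bind for 1 h at room temperature, then captured protein revealed with an HRP-linked polyclonal anti-myc antibody and read as optical density.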

The target of test [5] is T4, mouse PCSK9, myc-myc-his tagged (mouse, UniProt Q80W65 35-694).
T4 construct: also called mPCSK9-mmh; mPCSK9
The experiment in a line: ELISA, mAb coated, 1.2 nM antigen.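 Further: antigen allowed to bind for 1 h at room temperature, then captured protein revealed with an HRP-linked polyclonal anti-myc antibody and read as optical density.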
Description: as §2

Test [6] concerns the target T5, Chimeric protein #1 (mPro-hCat-mC-term-mmh) (mouse; human, UniProt Q80W65 35-694).
T5 chain: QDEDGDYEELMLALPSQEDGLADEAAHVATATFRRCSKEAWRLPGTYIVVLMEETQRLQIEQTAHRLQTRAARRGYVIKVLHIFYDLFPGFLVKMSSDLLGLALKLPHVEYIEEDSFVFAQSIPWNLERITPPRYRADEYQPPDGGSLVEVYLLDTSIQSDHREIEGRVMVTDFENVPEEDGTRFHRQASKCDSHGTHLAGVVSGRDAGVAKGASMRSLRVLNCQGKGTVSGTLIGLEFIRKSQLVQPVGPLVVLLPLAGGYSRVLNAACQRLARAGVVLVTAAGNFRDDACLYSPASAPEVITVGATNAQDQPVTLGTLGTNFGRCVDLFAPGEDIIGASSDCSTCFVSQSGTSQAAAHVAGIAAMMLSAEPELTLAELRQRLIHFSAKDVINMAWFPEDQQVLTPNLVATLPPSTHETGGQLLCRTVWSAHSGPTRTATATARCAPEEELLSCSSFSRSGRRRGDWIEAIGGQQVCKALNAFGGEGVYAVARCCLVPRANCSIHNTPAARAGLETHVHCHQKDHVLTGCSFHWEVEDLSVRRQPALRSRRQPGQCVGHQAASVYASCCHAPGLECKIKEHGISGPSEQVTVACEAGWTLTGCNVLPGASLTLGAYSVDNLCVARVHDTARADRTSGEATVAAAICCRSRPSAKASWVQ
The experiment in a line: ELISA, mAb coated, 1.2 nM antigen.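 Further: antigen allowed to bind for 1 h at room temperature, then captured protein revealed with an HRP-linked polyclonal anti-myc antibody and read as optical density.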
Description: as §2

Test [7] has as its target Chimeric protein #2 (hPro-mCat-mC-term-mmh) (human; mouse, UniProt Q80W65 19-694). The experiment in a line: ELISA, mAb coated, 1.2 nM antigen.
Description: as §2
Test [8] deals with T2, Human PCSK9-myc-myc-his. The experiment in a line: SPR, mAb captured, 25C. The source holds these as a separate data set.
Description: (§3) Each selected antibody was captured at a flowrate of 2 μl/min for 6 min on a goat anti-human IgG polyclonal antibody surface created through direct chemical coupling to a BIACORE™ chip to form a captured antibody surface.
The target of test [9] is T2, Human PCSK9-myc-myc-his. The experiment in a line: SPR, mAb captured, 37C. The source holds these as a separate data set.
Description: as §3
Test [10] addresses T6, Chimeric protein #3 (mPro-mCat-hC-term-mmh) (mouse; human).
T6 chain: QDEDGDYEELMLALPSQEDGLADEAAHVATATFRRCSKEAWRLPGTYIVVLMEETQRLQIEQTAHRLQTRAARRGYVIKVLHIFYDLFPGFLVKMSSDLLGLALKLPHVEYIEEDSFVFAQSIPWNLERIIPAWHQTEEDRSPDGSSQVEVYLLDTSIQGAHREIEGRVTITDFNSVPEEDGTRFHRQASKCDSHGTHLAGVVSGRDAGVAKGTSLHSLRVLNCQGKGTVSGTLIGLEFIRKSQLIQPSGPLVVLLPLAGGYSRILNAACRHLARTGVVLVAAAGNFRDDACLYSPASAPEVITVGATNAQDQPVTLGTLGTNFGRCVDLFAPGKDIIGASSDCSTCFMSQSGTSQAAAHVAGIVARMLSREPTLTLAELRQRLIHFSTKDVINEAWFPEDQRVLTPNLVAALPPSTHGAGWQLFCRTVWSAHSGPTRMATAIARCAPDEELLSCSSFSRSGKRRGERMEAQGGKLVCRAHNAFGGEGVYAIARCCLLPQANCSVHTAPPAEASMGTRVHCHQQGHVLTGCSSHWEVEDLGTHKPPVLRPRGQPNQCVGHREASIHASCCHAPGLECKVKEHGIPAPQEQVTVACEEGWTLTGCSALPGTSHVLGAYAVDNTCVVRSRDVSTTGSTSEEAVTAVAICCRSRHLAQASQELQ
Description: ELISA, mAb coated, 1.2 nM antigen.
Description: as §2

Where only a bound is given, the exact number is not on record here.

T1 sequence (A8T666 31-692 limits assumed): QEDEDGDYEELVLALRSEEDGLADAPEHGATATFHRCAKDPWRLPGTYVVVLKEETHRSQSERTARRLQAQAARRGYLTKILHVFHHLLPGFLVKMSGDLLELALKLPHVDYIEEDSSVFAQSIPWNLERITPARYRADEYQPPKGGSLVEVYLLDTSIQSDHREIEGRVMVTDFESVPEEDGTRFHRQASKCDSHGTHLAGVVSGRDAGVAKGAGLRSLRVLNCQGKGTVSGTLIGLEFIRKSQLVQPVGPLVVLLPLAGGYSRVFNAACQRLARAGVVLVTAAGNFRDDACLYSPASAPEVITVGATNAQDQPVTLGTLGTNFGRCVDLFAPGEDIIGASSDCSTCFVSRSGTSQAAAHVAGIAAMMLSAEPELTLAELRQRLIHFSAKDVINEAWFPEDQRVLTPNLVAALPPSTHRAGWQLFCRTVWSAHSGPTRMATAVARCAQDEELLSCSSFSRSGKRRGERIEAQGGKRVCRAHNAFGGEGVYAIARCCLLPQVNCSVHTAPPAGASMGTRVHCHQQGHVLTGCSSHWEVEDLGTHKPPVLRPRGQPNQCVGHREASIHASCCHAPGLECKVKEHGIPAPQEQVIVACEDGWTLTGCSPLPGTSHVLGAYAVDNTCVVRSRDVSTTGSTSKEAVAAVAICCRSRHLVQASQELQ
Description for hPCSK9(D374Y)-mmh: as §2

B1: H1M300 (antibody, V domains shown)
VH: EMQLVESGGGLVQPGGSLRLSCAASGFTFSSHWMKWVRQAPGKGLEWVANINQDGSEKYYVDSVKGRFTISRDNAKNSLFLQMNSLRAEDTAVYYCARDIVLMVYDMDYYYYGMDVWGQGTTVTVSS
VL: not shown
notes: Hybridoma-derived chimeric antibody (human variable, mouse constant)
Turning to B1, the T1/2 came out at 76 min in test [1], 170 min with Human PCSK9-myc-myc-his [2] and 32 min with Human PCSK9-myc-myc-his [3]. This molecule came in with a koff in [1] of 0.000152 s⁻¹. The Kd in the test with Human PCSK9-myc-myc-his [2] is 0.399 nM; with Human PCSK9-myc-myc-his [3], 1.51 nM. The OD in the test with Human PCSK9-myc-myc-his [4] is over 1 od; with hPCSK9(D374Y)-mmh it was over 1 od; in test [5], under 0.4 od; in [6] it was over 1 od; in test [7] it was 0.4 to 1 od.

B2: H1H317P (antibody, V domains shown)
VH: EVQLVESGGGLVQPGGSLRLSCAVSGFTLSSYDMHWVRQPTGKGLEWVSAIGSTGDTYYPGSVKGRFTISRENAKNSLYLQMNSLRAGDTAVYYCAREGWDVPFDFWGQGTLVTVSS
VL: AIQMTQSPSSLSASVGDRVTITCRASQDIRNDLGWYQQKPGKAPKLLIYAASSLQSGVPSRFSGSGSGTDFTLTISSLQPEDFATYYCLQDYNYPWTFGQGTKVEIK
notes: Fully human antibody cloned from B cells, made in CHO cells
With B2, in the test with Human PCSK9-myc-myc-his [8], the Kd is 30.4 nM and the T1/2 is 137 min. Also, in the test with Human PCSK9-myc-myc-his [9], the Kd is 18.6 nM and the T1/2 stood at 70 min.

B3: H1H320P (antibody, V domains shown)
VH: QVQLVQSGAEVKKPGASVKVSCKASGYTFTNYGISWVRQAPGQGLELMGWISGYNGNTNYAQELQARVTMTTDTSTSTAYMELRNLRSDDTAVYYCARDRVVVAAANYYFYSMDVWGQGTTVTVSS
VL: DVVMTQSPLSLSVTLGQPASISCRSSQSLVYSDGDTYLNWFQQRPGQSPRRLIYKVSNRDSGVPDRFSGSGSGTAFTLKISGVEAEDVGVYYCMQATHWPRTFGQGTKVEIK
notes: as for B2
For the molecule B3, the T1/2 in [1] was 36 min; with Human PCSK9-myc-myc-his [8], 28 min; with Human PCSK9-myc-myc-his [9] it was 8 min. Moreover, in test [1], the koff was determined as 0.000317 s⁻¹. Besides, the Kd with Human PCSK9-myc-myc-his [8] was found to be 0.771 nM; with Human PCSK9-myc-myc-his [9], 1.93 nM. Also, the OD with Human PCSK9-myc-myc-his [4] was over 1 od; with hPCSK9(D374Y)-mmh, over 1 od; in test [5] it was under 0.4 od; in test [6], under 0.4 od; in [7] it was over 1 od; in test [10], under 0.4 od.

B4: H1H318P (antibody, V domains shown)
VH: QVQLQESGPGLVKPSETLSLTCTVSGDSINTYYWSWFRQPPGKGLEWIGYIYYSGTTNYNPSLKSRVTISIDTPRNQFSLKLISVTAADTAVYYCARERITMIRGVTLYYYSYGMDVWGQGTTVTVSS
VL: DIQMTQSPSFLSASVGDRVTITCWASQDISSYLAWYQQKPGIAPKLLIYAASTLQSGVPSRFGGSGSGTEFTLTISSLQPEDFATYYCQQLNSYPRTFGQGTKVEIK
notes: as for B2
In the case of B4, the T1/2 worked out at 3 min in test [1], 59 min in the test with Human PCSK9-myc-myc-his [8] and 28 min with Human PCSK9-myc-myc-his [9]. Besides, in test [1], the koff worked out at 0.00369 s⁻¹. Moreover, the Kd with Human PCSK9-myc-myc-his [8] was 0.972 nM; with Human PCSK9-myc-myc-his [9], 1.69 nM. The OD in the test with Human PCSK9-myc-myc-his [4] is over 1 od; with hPCSK9(D374Y)-mmh, over 1 od; in test [5] it was under 0.4 od; in [6], over 1 od; in [7], under 0.4 od; in test [10], under 0.4 od.

B5: H1H315P (antibody, V domains shown)
VH: QVQLVESGGGVVQPGRSLRLSCAASGFTFSSYGMHWVRQAPGKGLEWVAFIGFDGSNIYYGDSVRGRIIISRDNSENTLYLEMNSLRAEDTAVYYCAREKGLDWGQGTLVTVSS
VL: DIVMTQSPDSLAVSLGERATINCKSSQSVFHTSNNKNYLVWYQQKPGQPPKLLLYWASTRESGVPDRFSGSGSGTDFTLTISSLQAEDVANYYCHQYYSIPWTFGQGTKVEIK
notes: as for B2
B5: the T1/2 in test [1] turned out to be 51 min; with Human PCSK9-myc-myc-his [8], 151 min; with Human PCSK9-myc-myc-his [9], 35 min. This molecule also displayed a koff in [1] of 0.000229 s⁻¹. Also, the Kd was found to be 0.129 nM with Human PCSK9-myc-myc-his [8] and 0.413 nM with Human PCSK9-myc-myc-his [9].

B6: H1M498 (antibody, V domains shown)
VH: EVQLVESGGGLVKPGGSLRLSCAASGFTFSSYSMDWVRQAPGKGLEWVSSISSSSSYIYYADSVKGRFTISRDTAKNSLYLQMNSLRDEDTAVYYCAREGSSRLFDYWGQGTLVTVSS
VL: DIQMTQSPSTLSASVGDRVTITCRASQSISSWLAWYQQRPGKAPKLLIYKASSLEGGVPSRFSGSGSGTEFTLTISSLQPEDFATYYCQQYNSYWYTFGQGTKLEIK
notes: as for B1
On to B6, for which the Kd worked out at 6.4 nM with Human PCSK9-myc-myc-his [2] and 7.5 nM with Human PCSK9-myc-myc-his [3]. Besides, the T1/2 with Human PCSK9-myc-myc-his [2] turned out to be 30 min; with Human PCSK9-myc-myc-his [3], 14 min. The OD with Human PCSK9-myc-myc-his [4] was over 1 od; in the test with hPCSK9(D374Y)-mmh, over 1 od; in test [5], under 0.4 od; in test [6], under 0.4 od; in test [7], under 0.4 od; in test [10], 0.4 to 1 od.

B7: H1H321P (antibody, V domains shown)
VH: QITLKESGPTLVKPTQTLTLTCTFSGFSLITSGVGVGWIRQPPGKALEWLALIYWNGDKRYSPSLKSRLTITKDTSKNQVVLTMTNMDPVDTATYYCAHRITETSYYFYYGMDVWGQGTTVTVSS
VL: not shown
notes: as for B2
In the test with Human PCSK9-myc-myc-his [8], B7 had a Kd of 0.865 nM and a T1/2 of 106 min. In the test with Human PCSK9-myc-myc-his [9], this molecule came in with a Kd of 3.36 nM and a T1/2 of 23 min.

B8: H1H334P (antibody, V domains shown)
VH: QITLKESGPTLVKPSQTLTLTCTFSGFSLSTSGVGVGWIRQPPGKALEWLALIYWNSDKRYSPSLKSRLTITKDTSKNQVVLTMTNMDPVDTATYYCAHRHDSSSYYFYYGMDVWGQGTTVTVSS
VL: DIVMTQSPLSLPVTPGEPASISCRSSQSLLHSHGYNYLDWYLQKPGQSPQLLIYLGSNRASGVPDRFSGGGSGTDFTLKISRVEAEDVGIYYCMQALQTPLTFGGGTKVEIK
notes: as for B2
As to B8, the T1/2 in [1] is 1 min; in the test with Human PCSK9-myc-myc-his [8] it was 46 min; with Human PCSK9-myc-myc-his [9], 8 min. For the same molecule, the koff in test [1] worked out at 0.00806 s⁻¹. The Kd with Human PCSK9-myc-myc-his [8] was 3.75 nM; with Human PCSK9-myc-myc-his [9], 15.9 nM. For the same molecule, the OD was over 1 od in the test with Human PCSK9-myc-myc-his [4]; over 1 od with hPCSK9(D374Y)-mmh; under 0.4 od in test [5]; over 1 od in test [6]; under 0.4 od in test [7]; under 0.4 od in test [10].

B9: H1M495 (antibody, V domains shown)
VH: EVQLVESGGGLVQPGRSLRLSCAASGFTFDDYAMHWVRQAPGKGLEWVSGINWNSGSIGYADSVKGRFTISRDNAKHSLYLQMNSLRPEDTALYYCVKEVTTGYYYGMDVWGQGTTVTVSS
VL: DIQLTQSPSFLSASVGDRVTITCWASQGISSYLAWYQKKPGKAPNLLIYDASTLQSGVPSRFSGSGSGTEFTLTLSSLQPEDFATYYCQQLNIYPFTFGPGTKVDIK
notes: as for B1
For B9, the Kd with Human PCSK9-myc-myc-his [2] was determined as 0.44 nM; with Human PCSK9-myc-myc-his [3] it was 7.5 nM. Moreover, the T1/2 came to 222 min in the test with Human PCSK9-myc-myc-his [2] and 19 min in the test with Human PCSK9-myc-myc-his [3]. The OD is over 1 od with Human PCSK9-myc-myc-his [4]; over 1 od with hPCSK9(D374Y)-mmh; under 0.4 od in test [5]; under 0.4 od in [6]; under 0.4 od in [7]; over 1 od in test [10].
